Data taken from PMC2606670.

Assays:
[1] = target: GST-ctβ382-401 Y390F (mouse | not stated) (UniProt P09690); assay: far-Western, overlay or dot blot
[2] = target: acetylcholine receptor containing beta subunit phosphorylated at Y390 (mouse (endogenous in myotubes)) (UniProt P04756); assay: co-IP
Chain of UniProt P04756 (P04756 21-457, chain 1 of 4): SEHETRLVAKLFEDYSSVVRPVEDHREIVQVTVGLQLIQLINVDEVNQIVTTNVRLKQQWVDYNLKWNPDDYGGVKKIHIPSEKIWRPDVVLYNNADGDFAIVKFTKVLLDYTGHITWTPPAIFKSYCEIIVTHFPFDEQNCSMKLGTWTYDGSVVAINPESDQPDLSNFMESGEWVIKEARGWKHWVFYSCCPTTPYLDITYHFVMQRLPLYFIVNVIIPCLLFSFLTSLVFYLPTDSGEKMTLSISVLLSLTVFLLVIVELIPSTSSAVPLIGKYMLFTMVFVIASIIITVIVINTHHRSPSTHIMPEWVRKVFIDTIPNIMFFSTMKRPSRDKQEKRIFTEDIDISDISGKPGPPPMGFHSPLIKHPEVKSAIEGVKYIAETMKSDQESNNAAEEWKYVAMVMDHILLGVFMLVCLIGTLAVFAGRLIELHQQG
Chain of UniProt P04756 (P09690 24-501, chain 2 of 4, further chain): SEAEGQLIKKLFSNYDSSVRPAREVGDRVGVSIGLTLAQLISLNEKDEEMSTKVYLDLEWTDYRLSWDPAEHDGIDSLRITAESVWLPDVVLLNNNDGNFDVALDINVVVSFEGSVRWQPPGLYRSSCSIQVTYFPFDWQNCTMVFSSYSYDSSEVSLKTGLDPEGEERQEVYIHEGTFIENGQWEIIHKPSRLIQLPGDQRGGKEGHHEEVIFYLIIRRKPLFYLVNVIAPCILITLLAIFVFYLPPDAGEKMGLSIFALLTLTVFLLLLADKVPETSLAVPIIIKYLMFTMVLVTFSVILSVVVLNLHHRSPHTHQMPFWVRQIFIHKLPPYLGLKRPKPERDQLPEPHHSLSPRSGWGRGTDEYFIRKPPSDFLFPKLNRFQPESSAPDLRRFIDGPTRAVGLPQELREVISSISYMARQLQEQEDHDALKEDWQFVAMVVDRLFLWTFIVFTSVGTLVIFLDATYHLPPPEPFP
Chain of UniProt P04756 (P02716 25-520, chain 3 of 4, further chain): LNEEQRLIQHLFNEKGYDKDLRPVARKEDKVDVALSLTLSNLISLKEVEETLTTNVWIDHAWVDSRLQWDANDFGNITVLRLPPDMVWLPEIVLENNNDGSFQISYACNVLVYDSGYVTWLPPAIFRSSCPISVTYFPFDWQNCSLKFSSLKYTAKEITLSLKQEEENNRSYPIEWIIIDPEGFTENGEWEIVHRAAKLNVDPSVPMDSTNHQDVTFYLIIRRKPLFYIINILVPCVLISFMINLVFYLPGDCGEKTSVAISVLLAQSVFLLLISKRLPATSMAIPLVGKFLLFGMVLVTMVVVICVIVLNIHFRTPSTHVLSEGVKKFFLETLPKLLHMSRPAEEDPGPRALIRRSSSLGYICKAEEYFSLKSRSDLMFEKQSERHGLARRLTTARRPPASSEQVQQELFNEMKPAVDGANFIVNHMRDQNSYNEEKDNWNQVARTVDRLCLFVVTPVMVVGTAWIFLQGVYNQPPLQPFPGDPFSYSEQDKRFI
Chain of UniProt P04756 (P04760 23-519, chain 4 of 4, further chain): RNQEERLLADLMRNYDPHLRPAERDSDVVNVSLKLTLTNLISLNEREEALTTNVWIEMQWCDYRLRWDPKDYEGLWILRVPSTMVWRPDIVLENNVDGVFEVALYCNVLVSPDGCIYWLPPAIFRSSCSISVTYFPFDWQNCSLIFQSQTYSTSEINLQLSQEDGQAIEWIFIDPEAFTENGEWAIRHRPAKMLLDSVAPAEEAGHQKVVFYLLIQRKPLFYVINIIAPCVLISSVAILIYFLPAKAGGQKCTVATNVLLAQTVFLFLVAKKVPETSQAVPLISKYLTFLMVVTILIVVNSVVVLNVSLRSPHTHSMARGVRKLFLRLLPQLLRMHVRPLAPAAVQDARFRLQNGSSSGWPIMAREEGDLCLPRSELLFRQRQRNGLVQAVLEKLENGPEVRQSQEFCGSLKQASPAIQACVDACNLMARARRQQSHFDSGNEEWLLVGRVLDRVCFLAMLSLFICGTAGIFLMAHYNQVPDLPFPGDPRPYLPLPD

Row | Binder | % of binding to β382-401 WT (% of binding to β382-401 WT) [1] | fold rapsyn associated, against AChR with non-phosphorylated β subunit [2] [fold]
1 | GST-rapsyn (natural protein) MGQDQTKQQIEKGLQLYQSNQTEKALQVWMKVLEKGSDLVGRFRVLGCLVTAHSEMGRYKEMLKFAVVQIDTARGLEDADFLLESYLNLARSNEKLCEFHKTISYCKTCLGLPGTRAGAQLGGQVSLSMGNAFLGLSLFQKALESFEKALRYAHNNDDTMLECRVCCSLGSFYAQVKDYEKALFFPCKAAELVNDYGKGWSLKYRAMSQYHMAVAYRLLGHLGSAMECCEESMKIALQHGDRPLQALCLLCFADIHRSRGDLETAFPRYDSAMSIMTEIGNRLGQVHVLLGVAKCWMARKVQDKALDAIEKAQDLAEEVGNKLSQLKLHCLSESIYRSKGLQRELRTHVVRFHECVEETELYCGLCGESIGERNSRLQALPCSHIFHLRCLQNNGTRSCPNCRRSSMKPGFV | 92 | –
2 | rapsyn, endogenous in mouse myotubes (natural protein) MGQDQTKQQIEKGLQLYQSNQTEKALQVWMKVLEKGSDLVGRFRVLGCLVTAHSEMGRYKEMLKFAVVQIDTARGLEDADFLLESYLNLARSNEKLCEFHKTISYCKTCLGLPGTRAGAQLGGQVSLSMGNAFLGLSLFQKALESFEKALRYAHNNDDTMLECRVCCSLGSFYAQVKDYEKALFFPCKAAELVNDYGKGWSLKYRAMSQYHMAVAYRLLGHLGSAMECCEESMKIALQHGDRPLQALCLLCFADIHRSRGDLETAFPRYDSAMSIMTEIGNRLGQVHVLLGVAKCWMARKVQDKALDAIEKAQDLAEEVGNKLSQLKLHCLSESIYRSKGLQRELRTHVVRFHECVEETELYCGLCGESIGERNSRLQALPCSHIFHLRCLQNNGTRSCPNCRRSSMKPGFV | – | 2.3
